Measurements reported in paper doi:10.1101/2025.07.10.664112 (bioRxiv, 2025).
“And” between values parts separate entries of the source, which are not always exact repeats. Equal values may be shown once.

Molecular target: the molecule itself
Assay: mass photometry

B1: Heterogeneous nuclear ribonucleoprotein A2/B1 (hnRNPA2B1), full length, tag-free (natural protein, human, UniProt P22626 1-353, looked up)
chain: MEKTLETVPLERKKREKEQFRKLFIGGLSFETTEESLRNYYEQWGKLTDCVVMRDPASKRSRGFGFVTFSSMAEVDAAMAARPHSIDGRVVEPKRAVAREESGKPGAHVTVKKLFVGGIKEDTEEHHLRDYFEEYGKIDTIEIITDRQSGKKRGFGFVTFDDHDPVDKIVLQKYHTINGHNAEVRKALSRQEMQEVQSSRSGRGGNFGFGDSRGGGGNFGPGPGSNFRGGSDGYGSGRGFGDGYNGYGGGPGGGNFGGSPGYGGGRGGYGGGGPGYGNQGGGYGGGYDNYGGGNYGSGNYNDFGNYNQQPSNYGPMKSGNFGGSRNMGGPYGGGNYGPGGSGGSGGYGGRSRY
stoichiometry N: 2 and 4
